B1: -24/+24 AAF (dsDNA)
DNA 1: CCCATTCCAACCATCCCACTACCTGTCCATCTTCACTCAACTATCACCC
DNA 2: GGGTGATAGTTGAGTGAAGATGGACAGGTAGTGGGATGGTTGGAATGGG
modifications: N-2-acetylaminofluorene adduct on the single G of strand 1 (nt 25, position 0)
B2: -24*/+24 AAF (dsDNA)
DNA 1: CCCATTCCAACCATCCCACTACCTGTCCATCTTCACTCAACTATCACCC
DNA 2: GGGTGATAGTTGAGTGAAGATGGACAGGTAGTGGGATGGT
modifications: N-2-acetylaminofluorene adduct on the single G of strand 1 (nt 25, position 0)
B3: -24/+15 AAF (dsDNA)
DNA 1: CCCATTCCAACCATCCCACTACCTGTCCATCTTCACTCA
DNA 2: TGAGTGAAGATGGACAGGTAGTGGGATGGTTGGAATGGG
modifications: N-2-acetylaminofluorene adduct on the single G of strand 1 (nt 25); printed strand spans -24 to +14

Experiments:
[1] = biological target: T1, coreTFIIH (7 subunits);Rad4-Rad23 (Saccharomyces cerevisiae? (yeast, tfb6 …, UniProt Q00578;P06839;P32776;Q02939;Q04673;Q12004;Q3E7C1;P14736;P32628 …, |)); experiment: EMSA; AMP-PNP, 2 mM Mg2+; EMSA: 20 mM HEPES, 100 mM K-acetate, 2 mM Mg-acetate, 5 mM DTT, room temperature 20 min, 250 nM each component, 0.2x TBE agarose gel at 4 C (pH not stated in this buffer); conditions: protein: native;recombinant; tags: TAP tags on Tfb4 and Ssl2; TEV-treated;His-purified, thrombin-digested; copies: 1;1;1;1;1;1;1;1;1; label: 32P 5' end (T4 PNK) in EMSA; blunt
[2] = biological target: T2, coreTFIIH (7 subunits);Rad4-Rad23;Rad33 (Saccharomyces cerevisiae? (yeast, tfb6 …, UniProt Q00578;P06839;P32776;Q02939;Q04673;Q12004;Q3E7C1;P14736;P32628;Q04231 …, ||)); experiment: EMSA; 100 nM Rad33; Rad4-Rad23 0-100 nM; EMSA: 20 mM HEPES, 100 mM K-acetate, 2 mM Mg-acetate, 5 mM DTT, room temperature 20 min, 250 nM each component, 0.2x TBE agarose gel at 4 C (pH not stated in this buffer); conditions: protein: native;recombinant;recombinant; tags: TAP tags on Tfb4 and Ssl2; TEV-treated;His-purified, thrombin-digested;His (HisTrap-purified, pETDuet); copies: 1;1;1;1;1;1;1;1;1;1; label: 32P 5' end (T4 PNK) in EMSA; blunt
[3] = biological target: T2, coreTFIIH (7 subunits);Rad4-Rad23;Rad33; experiment: glycerol gradient sedimentation; ATP; EMSA: 20 mM HEPES, 100 mM K-acetate, 2 mM Mg-acetate, 5 mM DTT, room temperature 20 min, 250 nM each component, 0.2x TBE agarose gel at 4 C (pH not stated in this buffer); conditions: protein: native;recombinant;recombinant; tags: TAP tags on Tfb4 and Ssl2; TEV-treated;His-purified, thrombin-digested;His (HisTrap-purified, pETDuet); copies: 1;1;1;1;1;1;1;1;1;1; label: 32P 5' end (T4 PNK) in EMSA; 5' overhang on strand 1: 9 nt from printed strands (text says 10 nt)
[4] = biological target: T1, coreTFIIH (7 subunits);Rad4-Rad23; experiment: EMSA; ATP 4 mM, 2 mM Mg2+; EMSA: 20 mM HEPES, 100 mM K-acetate, 2 mM Mg-acetate, 5 mM DTT, room temperature 20 min, 250 nM each component, 0.2x TBE agarose gel at 4 C (pH not stated in this buffer); conditions: protein: native;recombinant; tags: TAP tags on Tfb4 and Ssl2; TEV-treated;His-purified, thrombin-digested; copies: 1;1;1;1;1;1;1;1;1; label: 32P 5' end (T4 PNK) in EMSA; 5' overhang on strand 1: 9 nt from printed strands (text says 10 nt)

Row | Binder | binding result [1] | binding result [2] | binding result [3] | binding result [4]
1 | B1 | binds | binds |  | 
2 | B2 |  |  | binds | binds
3 | B3 | binds |  |  | 

Source: article PMC8184850, “Cryo-EM structure of TFIIH/Rad4–Rad23–Rad33 in damaged DNA opening in nucleotide excision repair” (Nature Communications, 2021)
